Drawing on patent US20030166864A1 (Human Genome Sciences, published 2003), this text covers Kd for 1 molecule.

The target in this experiment is T1, TACI-Fc fusion protein (transmembrane activator and CAML-interactor fused to Fc) (Homo sapiens (Human), UniProt O14836 1-159).
T1 construct: also called TACI-FC protein; Full-length TACI-Fc; not shown: Fc part from the vector pC4-Fc
T1 sequence: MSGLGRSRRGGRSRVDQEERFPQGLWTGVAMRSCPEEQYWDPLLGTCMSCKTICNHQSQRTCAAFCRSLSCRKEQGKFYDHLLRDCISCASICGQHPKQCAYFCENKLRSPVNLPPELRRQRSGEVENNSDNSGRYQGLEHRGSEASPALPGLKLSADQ
The experiment is described as follows: BIAcore (SPR), TACI-Fc amine-coupled to a CM5 chip, TNF-epsilon in flow. How it is done: BIAcore analysis was performed essentially as follows. TACI-FC protein was immobilized to the BIAcore sensor chip (CM5 chip) via amine groups using N-ethyl-N′-(dimethlaminopropyl)carbodiimide/N-hydroxysuccinimide chemistry. Various dilutions of TNF-epsilon or other TNF ligands were flowed over the receptor-derivatized flow cells at a rate of 15 microliters per minute for a total volume of 50 microliters. The amount of bound protein was determined during washing of the flow cell with HBS buffer (10 mM HEPES, pH 7.4, 150 mM NaCl, 3.4 mM EDTA, 0.005% Surfactant P20). Binding specificity of TNF-epsilon to TACI was determined by competition with soluble competitor. The flow cell surface was regenerated by displacing bound protein by washing with 20 microliters of 10 mM glycine-HCl, pH=2.3.
In general terms: SPR reads the build-up and loss of mass on a sensor chip optically.

B1: TNF-epsilon (purified, trimeric form isolated by size exclusion chromatography) (ligand)
chain: AVLTQKQKNDSDVTEVMWQPALRRGRGLQAQGYGVRIQDAGVYLLYSQVLFQDVTFTMGQVVSREGQGRQETLFRCIRSMPSHPDRAYNSCYSAGVFHLHQGDILSVIIPRARAKLNLSPHGTFLGFVKL
A word on the Kd: it is a measure of binding affinity in units of concentration. A higher Kd goes with weaker binding. B1: the Kd was determined as 6 nM.
